Numbering of substitutions follows the chain as printed.
Key:
I+HQN = I+HQN (UniProt P03023 SEQ:1-360, Y17H,R22N); test: cell_activity; day 1 dynamic range, IPTG; 57.65 day 3; conditions: chain copies: 4
E+HQN = biological target: T1, E+HQN (UniProt O87590 SEQ:1-337, Y17H,R22N); test: cell_activity; day 1 dynamic range of interception, cellobiose induced; 114.83 day 3; conditions: chain copies: 2
T1 sequence: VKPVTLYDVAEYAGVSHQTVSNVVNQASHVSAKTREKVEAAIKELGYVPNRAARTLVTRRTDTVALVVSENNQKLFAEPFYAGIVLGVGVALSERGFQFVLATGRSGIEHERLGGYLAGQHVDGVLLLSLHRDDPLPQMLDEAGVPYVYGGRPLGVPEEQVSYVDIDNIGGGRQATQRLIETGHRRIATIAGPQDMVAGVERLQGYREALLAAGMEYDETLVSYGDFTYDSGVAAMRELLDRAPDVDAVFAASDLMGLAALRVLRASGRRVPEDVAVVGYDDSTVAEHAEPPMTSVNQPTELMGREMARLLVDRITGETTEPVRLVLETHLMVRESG

E+KSL = biological target: T2, E+KSL (UniProt O87590 SEQ:1-337, Y17K,Q18S,R22L); test: cell_activity; day 1 dynamic range; 71.51 day 3; conditions: chain copies: 2
T2 sequence: T1 sequence with H17K, Q18S, N22L

I+KSL = I+KSL (UniProt P03023 SEQ:1-360, Y17K,Q18S,R22L); test: cell_activity; day 1 dynamic range; 7.42 day 3; conditions: chain copies: 4
[1] = biological target: T3, E+YQR (CelR core, LacI-type DBD) (UniProt O87590 SEQ:1-337); test: cell_activity; day 1 dynamic range; 141.52 day 3; conditions: chain copies: 2
T3 chain: T1 sequence with H17Y, N22R

I+YQR (LacI) = biological target: T4, I+YQR (LacI) (UniProt P03023 SEQ:1-360); test: cell_activity; day 1 dynamic range; 29.77 day 3; conditions: chain copies: 4
T4 chain: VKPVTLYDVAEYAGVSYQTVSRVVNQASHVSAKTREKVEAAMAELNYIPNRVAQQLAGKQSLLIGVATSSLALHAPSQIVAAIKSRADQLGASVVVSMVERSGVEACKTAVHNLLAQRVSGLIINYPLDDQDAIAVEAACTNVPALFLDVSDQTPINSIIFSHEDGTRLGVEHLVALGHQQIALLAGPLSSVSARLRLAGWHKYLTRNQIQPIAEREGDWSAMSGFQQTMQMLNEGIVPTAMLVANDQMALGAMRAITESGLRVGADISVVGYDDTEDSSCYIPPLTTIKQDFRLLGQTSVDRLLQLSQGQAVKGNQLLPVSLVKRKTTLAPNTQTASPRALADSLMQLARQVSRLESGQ

B1: A118 attP Ottg P+1 (dsDNA)
DNA 1: TTAGTTCCTCGTTTTCTCTCGTTAATTTTGAGCGCTCAAAAAAACTAAA
DNA 2: TTTAGTTTTTTTGAGCGCTCAAAATTAACGAGAGAAAACGAGGAACTAA
binding signal (I+HQN): 15.4 fold
binding signal (E+HQN): 20.6 fold

B2: A118 attP Oagg P+1 (dsDNA)
DNA 1: B1 DNA 1 with T28A, T29G, A38C, A39T
DNA 2: B1 DNA 2 with T11A, T12G, A21C, A22T
binding signal (E+KSL): 14.7 fold
binding signal (I+KSL): 5.44 fold

B3: A118 attP Ogtg (Osym) P+1 (dsDNA)
DNA 1: B1 DNA 1 with T28G, A39C
DNA 2: B1 DNA 2 with T11G, A22C
binding signal [1]: 20.9 fold
dynamic range (I+YQR (LacI)): 9.26 fold

From patent US20250043287, “SYNTHETIC MEMORY WITH INTERCEPTING RECOMBINASE FUNCTION” (Georgia Tech Research Corporation, published 2025)
